Consider 1 molecule from PMC5818740 (2018).

Ends that are not written are not given here.

This assay deals with PICK PDZ-BAR construct. Nature of the assay: FP.
Chain of PICK PDZ-BAR construct (chain, as listed by the source): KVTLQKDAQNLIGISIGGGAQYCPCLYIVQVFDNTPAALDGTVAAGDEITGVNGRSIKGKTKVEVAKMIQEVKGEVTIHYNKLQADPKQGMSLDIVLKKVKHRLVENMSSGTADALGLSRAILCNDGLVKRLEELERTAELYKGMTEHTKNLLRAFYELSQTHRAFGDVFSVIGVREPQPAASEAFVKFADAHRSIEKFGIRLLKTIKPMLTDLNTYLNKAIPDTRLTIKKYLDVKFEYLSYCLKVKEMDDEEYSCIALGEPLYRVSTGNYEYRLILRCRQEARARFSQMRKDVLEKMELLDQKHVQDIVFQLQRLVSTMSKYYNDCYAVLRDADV

B1: GluR2 peptide (competitor in the fluorescence polarization assay) (peptide)
chain: VYGIESVKI-OH
A word on the IC50: it is the concentration at which inhibition is half-maximal. Low readings indicate greater potency, high ones weaker potency. As to B1, the half-maximal inhibitory concentration (IC50) turned out to be 15.3 µM.
